Consider 1 molecule from patent US11028159B2 (priority 2017, dated 2021).

In the assay the test system is venoms of different snake species. The class given is binding.

B1: VHH candidate against cobrotoxin: camelid (llama) single-domain VHH antibody binding cobrotoxin, SEQ ID NO 4 (protein)
VHH: MAQVQLQESGGGLAQAGGSLRLSCSASRNIFRVYGWYRQAPGKQREWVASITRDDSTAYADSVKGRFTISRDSAKNTMYLQMSSLRLEDTSTYYCAAQSISGTIQWGQGTQVTVSSTSGPGGQHHHHHHGAEQKLISEEDLS
In the case of B1, the “number of venoms of different snake species bound (ELISA)” value was “at least 6”.
